Several values for one entry are separate records, joined by “and”; a condition that tells them apart may be missing. Equal values may be shown once.

Experiment [1] deals with T1, human LAG3 on recombinant CHO cells (human, UniProt P18627 23-525).
T1 construct: whole, on cells; also called Lag3 cells; recombinant CHO cells expressing Lag3
T1 sequence (looked up): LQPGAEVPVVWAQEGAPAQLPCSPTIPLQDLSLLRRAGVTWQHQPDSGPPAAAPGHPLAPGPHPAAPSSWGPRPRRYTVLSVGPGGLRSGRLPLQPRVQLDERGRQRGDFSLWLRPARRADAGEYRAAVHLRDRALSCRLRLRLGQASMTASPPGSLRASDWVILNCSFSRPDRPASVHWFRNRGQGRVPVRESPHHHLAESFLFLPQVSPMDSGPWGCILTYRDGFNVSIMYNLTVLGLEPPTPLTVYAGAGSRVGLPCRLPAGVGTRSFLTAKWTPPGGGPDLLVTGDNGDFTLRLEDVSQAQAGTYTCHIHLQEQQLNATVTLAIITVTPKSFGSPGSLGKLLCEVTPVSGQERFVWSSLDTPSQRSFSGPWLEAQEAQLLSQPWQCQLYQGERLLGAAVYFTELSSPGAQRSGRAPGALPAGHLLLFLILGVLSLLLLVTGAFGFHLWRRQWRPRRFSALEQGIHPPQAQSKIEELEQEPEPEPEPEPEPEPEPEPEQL
The experiment can be described thus: cell ELISA on CHO cells expressing human LAG3.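 Further: bivalent Fc-format binders titrated in threefold steps from 6 µg/mL, incubated with the cells 2 h at 4 °C, bound antibody detected by HRP-coupled anti-human IgG.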

The target in experiment [2] is T2, murine LAG3-Fc antigen (R&D Systems, 3328-L3-050) (murine, UniProt Q61790 24-442).
T2 construct: Bought reagent
T2 sequence (looked up): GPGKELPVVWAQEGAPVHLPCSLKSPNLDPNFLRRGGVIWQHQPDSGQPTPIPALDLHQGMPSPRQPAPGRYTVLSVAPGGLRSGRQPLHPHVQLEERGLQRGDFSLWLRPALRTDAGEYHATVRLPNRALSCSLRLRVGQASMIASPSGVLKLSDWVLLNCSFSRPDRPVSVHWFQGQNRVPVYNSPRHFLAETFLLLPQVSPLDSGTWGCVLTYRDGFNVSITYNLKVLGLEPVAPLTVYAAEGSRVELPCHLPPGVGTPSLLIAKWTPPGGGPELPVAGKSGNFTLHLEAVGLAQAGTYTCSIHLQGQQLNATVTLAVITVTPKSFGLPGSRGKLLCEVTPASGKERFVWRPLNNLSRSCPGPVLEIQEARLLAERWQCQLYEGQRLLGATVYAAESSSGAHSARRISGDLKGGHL
The experiment can be described thus: ELISA using murine LAG3-Fc antigen.

The target of experiment [3] is T3, soluble human Lag3-IgG1-Fc with biotinylated C-terminal Avi-tag (human, biotin on the C-terminal Avi-tag).
T3 construct: also called LAG3-Fc-avi; biotinylated LAG3-Fc antigen
As to the kind of experiment: A375 MHCII competition ELISA, biotinylated Lag3 250 ng/ml; competitor MHCII on A375 cells.

Experiment [4] concerns the target T3, soluble human Lag3-IgG1-Fc with …. The experiment can be described thus: A375 MHCII competition ELISA at 3 µg/ml, biotinylated Lag3 250 ng/ml; competitor MHCII on A375 cells.
The target in experiment [5] is T4, recombinant human LAG3 Fc Chimera Protein (R&D Systems, 2319-L3) (human, UniProt P18627 23-450).
T4 construct: Bought reagent
T4 sequence (looked up): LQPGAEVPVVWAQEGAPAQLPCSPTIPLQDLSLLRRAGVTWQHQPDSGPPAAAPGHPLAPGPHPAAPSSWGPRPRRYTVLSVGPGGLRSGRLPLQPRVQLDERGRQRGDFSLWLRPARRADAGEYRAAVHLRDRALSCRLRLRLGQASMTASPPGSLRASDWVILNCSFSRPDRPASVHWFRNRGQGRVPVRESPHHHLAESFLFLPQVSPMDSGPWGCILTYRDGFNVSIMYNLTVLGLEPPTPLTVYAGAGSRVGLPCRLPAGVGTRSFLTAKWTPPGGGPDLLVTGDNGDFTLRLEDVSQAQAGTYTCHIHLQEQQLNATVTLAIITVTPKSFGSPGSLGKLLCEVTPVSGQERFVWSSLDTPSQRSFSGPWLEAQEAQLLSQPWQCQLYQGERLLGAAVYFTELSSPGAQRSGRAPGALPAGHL
As to the kind of experiment: SPR (Biacore), aVH-Fc captured by anti-human Fc, human LAG-3 Fc chimera as analyte, 25 C.

For experiment [6], the target named is T4, recombinant human LAG3 Fc Chimera …. The experiment can be described thus: ELISA, plate coated with human LAG3 Fc chimera.
Experiment [7] concerns the target T3, soluble human Lag3-IgG1-Fc with …. The experiment can be described thus: SPR (ProteOn XPR36), biotinylated LAG3-Fc captured on NLC chip, purified aVH as analyte, 25 C.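 Further: One-shot kinetics in PBST running buffer, rates fitted by 1:1 Langmuir model fitting association and dissociation together, KD as koff/kon, biotinylated Fc surface as negative control.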

B1: bivalent P11E2 aVH-Fc (Fc fusion)
chain: EVQLVESGGGLVQPGGSLRLSCAASGFNIKDTCIGWVRRAPGKGTELVAEICDDIGYTRYADSVKGRFTISADTSKNTAYLQMNSLRAEDTAVYYCASQEHQWSFKYWGQGTTVTVSSGGGGSGGGGSDKTHTCPPCPAPEAAGGPSVFLFPPKPKDTLMISRTPEVTCVVVDVSHEDPEVKFNWYVDGVEVHNAKTKPREEQYNSTYRVVSVLTVLHQDWLNGKEYKCKVSNKALGAPIEKTISKAKGQPREPQVYTLPPSRDELTKNQVSLTCLVKGFYPSDIAVEWESNGQPENNYKTTPPVLDSDGSFFLYSKLTVDKSRWQQGNVFSCSVMHEALHNHYTQKSLSLSPGK
Consider B1, for which, in experiment [1], the EC50 is 0.0603 µg/mL and 0.8 nM; the OD max was 1.2 OD. Besides, the binding result in experiment [2] is listed as “no binding”. In experiment [3], the IC50 was 0.155 µg/mL and 2.1 nM. The “% Inhibition” value in experiment [4] was 91%. Moreover, in experiment [5], the koff was determined as 6.8e-05 s⁻¹ and the t1/2 is 2.83 h. In experiment [6], the 50% effective concentration (EC50) is 0.143 µg/mL and 1.9 nM; the OD max is 1.1 OD.

B2: bivalent P11E9 aVH-Fc (Fc fusion)
chain: EVQLVESGGGLVQPGGSLRLSCAASGFNIKDTCIGWVRRAPGKGTELVAEICHDIGYTRYADSVKGRFTISADTSKNTAYLQMNSLRAEDTAVYYCAAEEHVASFEYWGQGTTVTVSSGGGGSGGGGSDKTHTCPPCPAPEAAGGPSVFLFPPKPKDTLMISRTPEVTCVVVDVSHEDPEVKFNWYVDGVEVHNAKTKPREEQYNSTYRVVSVLTVLHQDWLNGKEYKCKVSNKALGAPIEKTISKAKGQPREPQVYTLPPSRDELTKNQVSLTCLVKGFYPSDIAVEWESNGQPENNYKTTPPVLDSDGSFFLYSKLTVDKSRWQQGNVFSCSVMHEALHNHYTQKSLSLSPGK
As for B2, in experiment [1], the EC50 is 0.0375 µg/mL and 0.5 nM; the OD max is 1.3 OD. Moreover, the binding result in experiment [2] is listed as “no binding”. Also, the IC50 in experiment [3] is 0.086 µg/mL and 1.1 nM. In addition, in experiment [4], the “% Inhibition” value was found to be 97.2%. Also, in experiment [5], the koff amounted to 2.4e-05 s⁻¹ and the t1/2 is 8.16 h. In experiment [6], the EC50 was 0.121 µg/mL and 1.6 nM; the OD max came out at 1.9 OD.

B3: LAG3 P11A2 aVH domain (VHH)
VHH: EVQLVESGGGLVQPGGSLRLSCAASSFNIKDTYIGWVRRAPGKGTELVAEIACHEGTTRYADSVKGRFTISCDTSKNTAYLQMNSLRAEDTAVYYCANTEYDDIFDYWGQGTTVTVSS
In experiment [7], B3 showed a Kd of 55 nM, a koff of 0.0138 s⁻¹ and a kon of 251000 M⁻¹ s⁻¹.

B4: LAG3 21B11 aVH domain (VHH)
VHH: EVQLVESGGGLVQPGGSLRLSCAASGFNIKDTCIGWVRRAPGKGTELVAEICQDIGYTRYADSVKGRFTISADTSKNTAYLQMNSLRAEDTAVYYCAADESVDNFKYWGQGTTVTVSS
In experiment [7], B4 gave a Kd of 43 nM, a koff of 0.00217 s⁻¹ and a kon of 62700 M⁻¹ s⁻¹.

B5: LAG3 P11E9 aVH domain (VHH)
VHH: EVQLVESGGGLVQPGGSLRLSCAASGFNIKDTCIGWVRRAPGKGTELVAEICHDIGYTRYADSVKGRFTISADTSKNTAYLQMNSLRAEDTAVYYCAAEEHVASFEYWGQGTTVTVSS
As to B5, in experiment [7], the Kd is 6.81 nM, the koff came out at 0.000656 s⁻¹ and the kon worked out at 96300 M⁻¹ s⁻¹.

B6: LAG3 P10C3 aVH domain (VHH)
VHH: EVQLVESGGGLVQPGGSLRLSCAASGFNIKDTCIGWVRRAPGKGTELVAEICTDAGYTRYADSVKGRFTISADTSKNTAYLQMNSLRAEDTAVYYCAASESPSGFRYWGQGTTVTVSS
In experiment [7], B6 yielded a Kd of 38.5 nM, an off-rate constant (koff) of 0.00217 s⁻¹ and a kon of 56200 M⁻¹ s⁻¹.

B7: LAG3 P10D1 aVH domain (VHH)
VHH: EVQLVESGGGLVQPGGSLRLSCAASGFSIKDTCIAWVRRAPGKGTELVAEICEDIGYTRYADSVKGRFTISADTSKNTAYLQMNSLRAEDTAVYYCAAKEAGVGFDYWGQGTTVTVSS
notes: also called P110D1
For B7, in experiment [7], the Kd stood at 27 nM, the koff was determined as 0.00383 s⁻¹ and the kon worked out at 144000 M⁻¹ s⁻¹.

B8: LAG3 19G3 aVH domain (VHH)
VHH: EVQLVESGGGLVQPGGSLRLSCAASGFNIKYQCIGWVRRAPGKGTELVAEICSYDGYTRYADSVKGRFTISADTSKNTAYLQMNSLRAEDTAVYYCAAEESVEGFIYWGQGTTVTVSS
notes: also called P19G3
As for B8, in experiment [7], the affinity, expressed as Kd, was 766 nM; the koff came out at 0.00466 s⁻¹; the kon is 6080 M⁻¹ s⁻¹.

B9: LAG3 P21A03 aVH domain (VHH)
VHH: EVQLVESGGGLVQPGGSLRLSCAASGFNIKDTCIGWVRRAPGKGTELVAEICEDIGYTRYADSVKGRFTISADTSKNTAYLQMNSLRAEDTAVYYCAANEHSVGFNYWGQGTTVTVSS
notes: also called 21A3
In experiment [7], B9 came in with a Kd of 13.7 nM, a koff of 0.000387 s⁻¹ and a kon of 28200 M⁻¹ s⁻¹.

B10: LAG3 17D7 aVH domain (VHH)
VHH: EVQLVESGGGLVQPGGSLRLSCAASGFNIKDTCIGWVRRAPGKGTELVAEICTDIGYTRYADSVKGRFTISADTSKNTAYLQMNSLRAEDTAVYYCAAGEGSSGFHYWGQGTTVTVSS
B10: in experiment [7], the Kd is 311 nM, the koff was 0.00493 s⁻¹ and the kon stood at 15900 M⁻¹ s⁻¹.

B11: LAG3 P9G1 aVH domain (VHH)
VHH: EVQLVESGGGLVQPGGSLRLSCAASGFNIKDTCIGWVRRAPGKGTELVAEICQDIGYTRYADSVKGRFTISADTSKNTAYLQMNSLRAEDTAVYYCAGEEGATNFKYWGQGTTVTVSS
With B11, in experiment [7], binding was put at a Kd of 5.1 nM, the koff is 0.000829 s⁻¹ and the kon was found to be 162000 M⁻¹ s⁻¹.

B12: LAG3 P11E2 aVH domain (VHH)
VHH: EVQLVESGGGLVQPGGSLRLSCAASGFNIKDTCIGWVRRAPGKGTELVAEICDDIGYTRYADSVKGRFTISADTSKNTAYLQMNSLRAEDTAVYYCASQEHQWSFKYWGQGTTVTVSS
Turning to B12, in experiment [7], the Kd is 36.7 nM, the koff came out at 0.00157 s⁻¹ and the kon came to 42800 M⁻¹ s⁻¹.

B13: LAG3 9B4 aVH domain (VHH)
VHH: EVQLVESGGGLVQPGGSLRLSCAASGFNIKDTCIGWVRRAPGKGTELVAEICQDIGYTRYADSVKGRFTISADTSKNTAYLQMNSLRAEDTAVYYCAAVEVAEYFEYWGQGTTVTVSS
In experiment [7], B13 gave a Kd of 86 nM, a koff of 0.00314 s⁻¹ and a kon of 36500 M⁻¹ s⁻¹.

Values taken from patent publication US20200354457A1 (Hoffmann-La Roche, published 2020).
